# Measured values from US12662531B2, “CLDN18.2 antibody and use thereof” (FUTUREGEN BIOPHARMACEUTICAL (BEIJING) CO., LTD., priority 2019, dated 2026).
# B1: 18.2-A1: recombinant monoclonal CLDN18.2 antibody, VH SEQ ID NO: 1, VL SEQ ID NO: 6 (antibody, V domains shown)
# VH: EVQLVQSGAEVKKPGASVKVSCKASGYTFTSSWLIWVRQAPGQGLEWIGTIVPSDSYTNYNQKFKDRATLTVDKSTSTAYMELSSLRSEDTAVYYCTRFRTGNSFDYWGQGTLVTVSS
# VL: DIVMTQSPDSLSVGLGERATINCKSSQSVLNSGNQKNYLTWYQQKPGQPPKLLIYWAVARQSGVPDRFSGSGSGTDFTLTISSLQAEDVAVYYCQNSIAYPFTFGQGTKVEIK
# modifications: 18.2-A1 VH; 18.2-A1 VL
# What was measured:
# [1] = system: SNU601 cells expressing CLDN18.2; assay: Endocytosis of antibody after binding to SNU601 cells stably expressing CLDN18.2; assay type: cell-based; details: 10 μg/ml, 4 h
# Protocol: It has been reported that the binding of some antibodies to cell surface antigens can cause endocytosis of antigen and antibody complexes, thereby reducing the expression level of the cell surface antigens and accelerating antibody metabolism in vivo (Schrama D et al., 2006, Nat Rev Drug Discov). In this example, the ability of antibodies 18.2-A1, 18.2-A3, 18.2-A4 and 18.2-A6 to be endocytosed by cells was tested in SNU601 cells stably expressing CLDN18.2. […] Subsequently, they were washed at 4° C. and stained with PE-labeled anti-human IgG antibody. After fixation with 4% formalin, antibody binding on the cell surface was tested by flow cytometry.
# [2] = system: untransfected Jurkat cells; assay: Flow cytometry binding to untransfected Jurkat cells; details: results not shown
# [3] = biological target: T1, CLDN18.2 (CT26-CLDN18.2 cells) (Homo sapiens, UniProt P56856); assay: Flow cytometry binding of recombinant antibodies to CT26-CLDN18.2 cells; details: 4° C. 1 hour
# T1 construct: expressed in transfected cells; host or cells: CT26 cells (mouse), lentiviral transduction, puromycin selection
# Protocol: Binding activities of the recombinant monoclonal antibodies to CLDN18.2 were determined. Specifically, well-grown cell lines stably expressing CT26-CLDN18.2 were taken. The cells were washed with PBS, mixed with the fold-diluted antibody and incubated at 4° C. for 1 hour. The cells were washed once with flow cytometry buffer, PE-labeled anti-human IgG antibody was added, and incubated at 4° C. for 30 minutes. The supernatant was removed by centrifugation, and after the cells were washed with flow cytometry buffer, the fluorescence intensity on the surface of the cells was tested by flow cytometry. The relative binding activity of each antibody was calculated using the average fluorescence intensity.
# The binding activity of the defucosylated antibodies 18.2-A1F, 18.2-A3F and 18.2-A4F to CLDN18.2 as compared to the binding activity of 18.2-A1, 18.2-A3 and 18.2-A4 to CLDN18.2 was tested by flow cytometry, the method of which is as described in Example 5, and the experimental results are shown in FIG. 7.
# [4] = system: human FcγRIIIa (V158) on FcγRIIIa-Jurkat cells; assay: Flow cytometry binding to FcγRIIIa-Jurkat cells
# Excerpt: We next further tested the binding activity of the CLDN18.2 antibodies and their defucosylated forms to FcγRIIIa expressed on the cell surface. Specifically, the human FcγRIIIa (V158, high FC binding subtype) gene was cloned into a mammalian cell expression vector carrying a puromycin screening marker and transfected into a Jurkat cell line. A cell line stably expressing FcγRIIIa (FcγRIIIa-Jurkat) was screened with puromycin. In addition, NK92MI is a human NK cell line that naturally expresses the FcγRIIIa receptor (F158, low FC binding subtype). The binding ability of the CLDN18.2 antibodies and their defucosylated forms to FcγRIIIa expressed on the surface of FcγRIIIa-jurkat cells and NK92MI cells was tested by flow cytometry. The specific flow cytometry assay is described with reference to Example 6.
# [5] = biological target: T2, CLDN18.2 (CLDN18.2-Flag 293t cells) (Homo sapiens, UniProt P56856); assay: Binding specificity, 293t cells expressing CLDN18.2-Flag, flow cytometry; details: 10 μg/ml antibody, 4° C. 1 hour
# T2 construct: expressed in transfected cells; host or cells: 293t cells, transient transfection
# Excerpt: (§1) Human Claudin18 proteins include two homologues, i.e., CLDN18.1 and CLDN18.2, which share exons other than exon 1, and the exon 1 sequences of CLDN18.1 and CLDN18.2 are highly similar with only 8 different amino acids in the first extracellular region. The exon 1 of CLDN18.1 and the exon 1 of CLDN18.2 are specifically expressed in different tissues driven by different promoters. Among them, CLDN18.1 is specifically expressed in lung epithelial cells, while CLDN18.2 is specifically expressed in gastric epithelial cells. To identify the specificity of the screened CLDN18.2 antibodies, binding of the antibodies to CLDN18.1 and CLDN18.2 was tested.
# (§2) Specifically, well-grown 293t cells were taken to transiently express flag-tagged CLDN18.1 (CLDN18.1-Flag) or CLDN18.2 (CLDN18.2-Flag). 48 hours after transfection, the cells were digested with trypsin. After washed with flow cytometry buffer, the cells were mixed with 10 μg/ml of isotype control antibody or one of the above five CLDN18.2 antibodies in 200 μl of flow cytometry buffer, and were incubated at 4° C. for 1 hour. Subsequently, the cells were washed once with flow cytometry buffer, PE-labeled anti-human IgG antibody was added, and incubated at 4° C. for 30 min. The supernatant was removed by centrifugation, wash was performed twice with flow cytometry buffer, and the cells were fixed in a fix solution containing 1% paraformaldehyde and 0.5% triton-X100 and the cell membrane was permeabilized. Subsequently, the cells were incubated with APC-labeled anti-flag antibody for 30 min and tested by flow cytometry.
# [6] = biological target: T3, CLDN18.1 (CLDN18.1-Flag 293t cells) (Homo sapiens, UniProt P56856); assay: Binding specificity, 293t cells expressing CLDN18.1-Flag, flow cytometry; details: 10 μg/ml antibody, 4° C. 1 hour
# T3 construct: expressed in transfected cells; host or cells: 293t cells, transient transfection
# Excerpt: as §1, §2
# control CT26 cell line = assay: Flow cytometry binding to control CT26 cell line; details: results not shown
# FcγRIIIa = assay: Biacore binding to FcγRIIIa; details: FcγRIIIa captured as ligand, antibody as analyte
# Protocol: Subsequently, the binding activity of the CLDN18.2 antibody and its defucosylated form to FcγRIIIa was tested using the Biacore method. Specifically, FcγRIIIa (Sino Biological Inc, 10389-H08C1) was diluted to 0.1 μg/ml in HBS-EP buffer as a ligand, and 18.2-A1F and 18.2-A1 antibody samples were diluted to 360 μg/ml, 120 μg/ml, 40 μg/ml, 13.3 μg/ml and 4.4 μg/ml respectively as analytes. The ligand FcγRIIIa was immobilized using an indirect capture method. First, 50 μg/ml of Anti-His IgG was covalently bound to the surface of CMS chip through amino coupling, followed by the binding of the ligand and analyte. Affinity analysis experiments were performed in Biacore Wizard mode using a multi-cycle approach with FcγRIIIa as the ligand and 18.2-A1F and 18.2-A1 antibody samples as analytes.
# The test for each sample includes three Start up, one zero concentration control, five gradient concentration samples and one replicate sample (reference). The chip was regenerated with 10 mM glycine-HCl, pH 1.5 regeneration solution after each cycle. Each concentration cycle of the analyte was set with a capture time of 60 s and a flow rate of the ligand solution of 10 μl/min; a binding time of ligand and analyte of 180 s, and a flow rate of the analyte solution of 30 μl/min; and a dissociation time of 180 s. The CMS chip coupled with Anti-His IgG was placed in the slot for detection and analysis. […]
molecule,measurement,setting,value
B1,binding to SNU601 cells expressing CLDN18.2 under 4° C. incubation,[1]; 4° C.,bound well
same,antibody staining/binding on the cell surface under 37° C. incubation,[1]; 37° C.,still bound well
same,endocytosis by cells under 37° C. incubation,[1]; 37° C.,did not undergo significant endocytosis
same,binding to untransfected Jurkat cells,[2],not able to bind
same,binding to CT26 cell line expressing CLDN18.2,[3],able to bind well
same,binding to FcγRIIIa-jurkat cells,[4],able to bind
same,binding to CLDN18.2-flag transfected positive 293t cells,[5],able to bind well
same,binding to CLDN18.1-positive cells,[6],none of the six antibodies bound
same,binding to control CT26 cell line,control CT26 cell line,did not bind
same,binding to FcγRIIIa (Biacore),FcγRIIIa,able to bind to FcγRIIIa effectively
